System: Escherichia coli TOP10
Assay: shrunken log2 fold change of peptide-encoding DNA abundance (4.5 h post-induction vs induction); higher = less antimicrobial activity (less host growth inhibition)
Details: time post-induction: 4.5 h; library: site-saturation at positions 5, 18, 19, 20
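Note: peptides expressed intracellularly from a pBAD plasmid library in pooled LB shake-flask culture, induced with 0.3% L-arabinose, DNA abundance read by NGS, three biological replicates, DESeq2 with apeglm shrinkage.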

Sequence: RRIRMRPPRLPRPRPRPLQFPRP
- shrunken log2 fold change: 0.388

Sequence: RRIRQRPPRLPRPRPRPVLMPRP
- shrunken log2 fold change: 0.111

Sequence: RRIRARPPRLPRPRPRPYRYPRP
- shrunken log2 fold change: -0.274

Sequence: RRIRCRPPRLPRPRPRPNMTPRP
- shrunken log2 fold change: -0.229

Sequence: RRIRWRPPRLPRPRPRPVPHPRP
- shrunken log2 fold change: 0.271

Sequence: RRIRNRPPRLPRPRPRPRFWPRP
- shrunken log2 fold change: 0.395

Sequence: RRIRKRPPRLPRPRPRPYCMPRP
- shrunken log2 fold change: -0.461

Sequence: RRIRMRPPRLPRPRPRPLEQPRP
- shrunken log2 fold change: 0.446

Sequence: RRIRVRPPRLPRPRPRPVTNPRP
- shrunken log2 fold change: -0.68

Sequence: RRIRERPPRLPRPRPRPQYGPRP
- shrunken log2 fold change: -0.0797

Sequence: RRIRKRPPRLPRPRPRPYQPPRP
- shrunken log2 fold change: -0.191

Sequence: RRIRWRPPRLPRPRPRPIAKPRP
- shrunken log2 fold change: -0.283

Sequence: RRIRWRPPRLPRPRPRPYGMPRP
- shrunken log2 fold change: -0.4

Sequence: RRIRVRPPRLPRPRPRPYLLPRP
- shrunken log2 fold change: -0.357

Sequence: RRIRNRPPRLPRPRPRPFVKPRP
- shrunken log2 fold change: -0.669

Sequence: RRIRRRPPRLPRPRPRPDYEPRP
- shrunken log2 fold change: -0.115

Sequence: RRIRARPPRLPRPRPRPYIQPRP
- shrunken log2 fold change: -0.873

Sequence: RRIRHRPPRLPRPRPRPILPPRP
- shrunken log2 fold change: 0.0147

Sequence: RRIRDRPPRLPRPRPRPMIPPRP
- shrunken log2 fold change: -0.184

Sequence: RRIRDRPPRLPRPRPRPDFRPRP
- shrunken log2 fold change: -0.0735

Sequence: RRIRERPPRLPRPRPRPVVDPRP
- shrunken log2 fold change: 0.0306

Sequence: RRIRYRPPRLPRPRPRPIIFPRP
- shrunken log2 fold change: 0.0131

Sequence: RRIRVRPPRLPRPRPRPWVCPRP
- shrunken log2 fold change: 0.133

Sequence: RRIRHRPPRLPRPRPRPDNLPRP
- shrunken log2 fold change: 0.0139

Sequence: RRIRARPPRLPRPRPRPFTDPRP
- shrunken log2 fold change: 0.128

Sequence: RRIRLRPPRLPRPRPRPVLDPRP
- shrunken log2 fold change: -0.366

Sequence: RRIRVRPPRLPRPRPRPMKDPRP
- shrunken log2 fold change: -0.109

Sequence: RRIRCRPPRLPRPRPRPGVQPRP
- shrunken log2 fold change: -0.419

Sequence: RRIRSRPPRLPRPRPRPNITPRP
- shrunken log2 fold change: -0.582

Sequence: RRIRLRPPRLPRPRPRPLKDPRP
- shrunken log2 fold change: -0.0949

Sequence: RRIRLRPPRLPRPRPRPDDTPRP
- shrunken log2 fold change: -0.0691

Sequence: RRIRERPPRLPRPRPRPRPTPRP
- shrunken log2 fold change: 0.35

Sequence: RRIRGRPPRLPRPRPRPVPTPRP
- shrunken log2 fold change: 0.865

Sequence: RRIRARPPRLPRPRPRPYYTPRP
- shrunken log2 fold change: -0.762

Sequence: RRIRPRPPRLPRPRPRPRHWPRP
- shrunken log2 fold change: 0.423

Sequence: RRIRQRPPRLPRPRPRPEKTPRP
- shrunken log2 fold change: -0.0176

Sequence: RRIRMRPPRLPRPRPRPTRYPRP
- shrunken log2 fold change: 0.628

Sequence: RRIRSRPPRLPRPRPRPSPRPRP
- shrunken log2 fold change: 0.217

Sequence: RRIRNRPPRLPRPRPRPGRAPRP
- shrunken log2 fold change: 0.177

Sequence: RRIRERPPRLPRPRPRPNGIPRP
- shrunken log2 fold change: -0.115

Sequence: RRIRRRPPRLPRPRPRPQAPPRP
- shrunken log2 fold change: 0.236

Sequence: RRIRVRPPRLPRPRPRPQRIPRP
- shrunken log2 fold change: -0.544

Sequence: RRIRWRPPRLPRPRPRPPYQPRP
- shrunken log2 fold change: -0.172

Sequence: RRIRNRPPRLPRPRPRPKTTPRP
- shrunken log2 fold change: 0.118

Sequence: RRIRNRPPRLPRPRPRPQTSPRP
- shrunken log2 fold change: -0.346

Sequence: RRIRHRPPRLPRPRPRPVWCPRP
- shrunken log2 fold change: -0.0641

Sequence: RRIRWRPPRLPRPRPRPLPIPRP
- shrunken log2 fold change: -0.0952

Sequence: RRIRCRPPRLPRPRPRPWHFPRP
- shrunken log2 fold change: -0.422

Sequence: RRIRKRPPRLPRPRPRPNYYPRP
- shrunken log2 fold change: -0.305

Sequence: RRIRARPPRLPRPRPRPQFYPRP
- shrunken log2 fold change: -0.183

Sequence: RRIRYRPPRLPRPRPRPIHQPRP
- shrunken log2 fold change: -0.0218

Sequence: RRIRTRPPRLPRPRPRPENVPRP
- shrunken log2 fold change: -0.0181

Sequence: RRIRPRPPRLPRPRPRPMFPPRP
- shrunken log2 fold change: 0.0316

Sequence: RRIRNRPPRLPRPRPRPNRLPRP
- shrunken log2 fold change: 0.0192

Sequence: RRIRSRPPRLPRPRPRPGPKPRP
- shrunken log2 fold change: 1.07

Sequence: RRIRWRPPRLPRPRPRPHTEPRP
- shrunken log2 fold change: -0.0123

Sequence: RRIRTRPPRLPRPRPRPRDDPRP
- shrunken log2 fold change: 0.107

Sequence: RRIRARPPRLPRPRPRPQFRPRP
- shrunken log2 fold change: -0.123

Sequence: RRIRGRPPRLPRPRPRPTYGPRP
- shrunken log2 fold change: 0.372

Sequence: RRIRPRPPRLPRPRPRPAYLPRP
- shrunken log2 fold change: -0.317

— the supplement of paper PMC9112550, “Optimization of the antimicrobial peptide Bac7 by deep mutational scanning” (BMC Biology, 2022)
